Data published in patent US20180360749A1, “METHODS AND COMPOSITIONS FOR DELIVERY OF MEDICAMENTS TO THE LUNGS” (Paka Pulmonary Pharmaceuticals, priority 2007, published 2018).

Legend:
[1] = target: T1, HNE (Homo sapiens, UniProt P08246); assay: Kinetic studies of affinity for HNE; type: biochemical
T1 sequence (P08246 30-267): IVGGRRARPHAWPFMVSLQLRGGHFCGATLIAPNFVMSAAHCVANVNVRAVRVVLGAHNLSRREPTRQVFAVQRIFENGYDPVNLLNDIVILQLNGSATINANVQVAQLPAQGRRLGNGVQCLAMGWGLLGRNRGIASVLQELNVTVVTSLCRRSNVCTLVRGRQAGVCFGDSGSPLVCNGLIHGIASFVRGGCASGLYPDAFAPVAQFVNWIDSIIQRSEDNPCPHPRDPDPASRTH

[2] = target: T1, HNE; assay: Bronchoalveolar lavage of the lungs following HNE exposure (lung blood cell level); type: in vivo; conditions: mice
Procedure: A total of 14 animals were used in this study. Anesthetized mice received 0.1 ml of solution delivered by a blunt tip catheter to the opening of the trachea and the animals allowed to aspirate the solution into their lungs. All animals were exposed to the treatment for 2 hours and re-anesthetized. Bronchoalveolar lavage of the lungs was performed as described below. […] Target 2 (a potent HNE inhibitor developed by Zeneca in the early 1990s) when given with the HNE, reduced the average blood level in the lungs by 34% to 0.035 grams. Target C (the Zeneca molecule covalently attached to the N-terminus of the first 25 residues of the human surfactant B peptide) when given with the HNE reduced the average blood level in the lungs by 87% to 0.007 grams.
A set of animals was used to determine the optimal concentration of HNE for the study. […] The amount of HNE was reduced to 40 micrograms to maintain a maximal detrimental but survivable effect. The animals exposed to 40 micrograms of HNE were able to survive long enough to perform the complete study. All animals remaining in the complete study were exposed to 40 micrograms of HNE.
Target 2 (the Zeneca molecule) was given in a 70-fold molar excess relative to HNE. In the kinetic studies, Target 2 has 2 nM affinity. […] Accordingly, the Target C was given to the animals in a 100 fold molar excess relative to HNE in these studies.
Bronchio-Alveolar lavage (BAL) is performed by 1) anesthetizing the animals; 2) performing a tracheotomy on the animals and cutting open the chest and spreading the ribs to enable full lung expansion; 3) pressurizing lml of PBS buffer solution into the lungs through the tracheotomy catheter; 4) sucking the solution out of the lungs; 5) centrifuging the recovered solution to separate the red blood cell fraction from the liquid fraction; and 6) weighing the red blood cell fraction.

[3] = given with 40 micrograms HNE via trachea, 2 hours exposure, weight of BAL red blood cell fraction, Target 2 70-fold, Target C 100 fold molar excess relative to HNE

Target C: the Zeneca molecule covalently attached to the N-terminus of the first 25 residues of the human surfactant B peptide (FPIPLPYCWLCRALIKRIQAMIPKG)
Ki [1]: ~200 nM | loss of potency as compared to Target 2 [1]: approximately two orders of magnitude | Lung Blood Cell Level Measurements, Mouse group 1 [2, 3]: 0 g | Lung Blood Cell Level Measurements, Mouse group 2 [2, 3]: 0.007 g | Lung Blood Cell Level Measurements, Mouse group 3 [2, 3]: 0.014 g | Lung Blood Cell Level Measurements, Group mean ([2]; given with 40 micrograms HNE, 2 hours exposure, mean of the mouse groups): 0.007 g | average blood level in the lungs (lung blood cell level by weight) ([2]; given with the HNE, 2 hours exposure): 0.007 grams | reduction of the average blood level in the lungs ([2]; given with the HNE, relative to animals given HNE (0.053 grams)): 87%
